Series [1] concerns the target T1, DNA polymerase beta I260Q (NMR, crystal) (UniProt P06746 1-335, I260Q). The series can be described thus: NMR; binary, 10 mM MgCl2; NMR: 50 mM HEPES, 100 mM KCl, 2 mM DTT, 10 mM MgCl2, 10% D2O, pH 7.4; crystals: 18-20% PEG 3350, 50 mM HEPES pH 7.5, 175-250 mM Na acetate, 2 mM TCEP, 1% tert-b.
Series [2] deals with T1, DNA polymerase beta I260Q (NMR, crystal). The series can be described thus: X-ray crystallography; binary; NaI soak; NMR: 50 mM HEPES, 100 mM KCl, 2 mM DTT, 10 mM MgCl2, 10% D2O, pH 7.4; crystals: 18-20% PEG 3350, 50 mM HEPES pH 7.5, 175-250 mM Na acetate, 2 mM TCEP, 1% tert-b.

B1: NMR substrate template T (20) (dsDNA)
DNA 1: CGACCGACTGCGCATCAGCC
DNA 2: GGCTGATGCGC
DNA 3: GTCGGTCG
For the molecule B1, in series [1], the binding result was “binds”.

B2: X-ray substrate template A (16) (dsDNA)
DNA 1: CCGACAGCGCATCAGC
DNA 2: GCTGATGCGC
DNA 3: GTCGG
As to B2, the binding result in series [2] is recorded as “binds”.

The record behind these values is publication PMC6237750.
